Values of other authors, collected in patent US12514832B2, “Methods for using low-dose colchicine after myocardial infarction” (INSTITUT DE CARDIOLOGIE DE MONTREAL, priority 2019, dated 2026).

Experiments:
interleukin-13 = interleukin-13 (Homo sapiens, UniProt P01584); conditions: CANTOS; cited from earlier work
[1] = CIRT; cited from earlier work

Row | Molecule | incidence of fatal infections versus placebo (in words) (interleukin-13) | effect on cardiovascular outcomes or plasma markers of inflammation (in words) [1]
1 | canakinumab: injectable monoclonal antibody; anti-inflammatory studied in CANTOS | slightly higher incidence of fatal infections | 
2 | CN(Cc1cnc2nc(N)nc(N)c2n1)c1ccc(C(=O)N[C@@H](CCC(=O)O)C(=O)O)cc1 [methotrexate] |  | did not affect cardiovascular outcomes or plasma markers of inflammation
